From patent publication US20140249468

Legend:
[1] = tested on: MMP-P12
[2] = tested on: MMP-P24
[3] = tested on: MMP-P4
[4] = tested on: MMP-P67
[5] = tested on: MMP-P0

Measured: fluorescence activation (recovery of Cy5.5 fluorescence on cleavage)

activated recombinant human MMP-13
>25-fold vs. without MMP: all assays above
